Results from article PMC3905892 (Nucleic Acids Research, 2013).

Target: Paf1(57–392) (human, UniProt Q8N7H5 57-392)
Assay: SEC

stoichiometry N: 1
B1: Leo1(277–562) (domain or fragment)
chain: SDSEDEVLRMKRKNAIASDSEADSDTEVPKDNSGTMDLFGGADDISSGSDGEDKPPTPGQPVDENGLPQDQQEEEPIPETRIEVEIPKVNTDLGNDLYFVKLPNFLSVEPRPFDPQYYEDEFEDEEMLDEEGRTRLKLKVENTIRWRIRRDEEGNEIKESNARIVKWSDGSMSLHLGNEVFDVYKAPLQGDHNHLFIRQGTGLQGQAVFKTKLTFRPHSTDSATHRKMTLSLADRCSKTQKIRILPMAGRDPECQRTEMIKKEEERLRASIRRESQQRRMREKQHQ
